Legend:
B2M = experiment: sgRNA screening for B2M knockout in LSCs (nucleofection, FACS); format: cell-based, human; settings: Cas9 protein SEQ ID NO: 106, LSCs at passage 3, FACS after around 3 days
Procedure: Cells were cultured under these conditions for 24-48 hours at 37° C. in 5% CO2.
LSCs were nuclofected with selected gRNAs (Table 6) followed by FACS analysis / MACS separation.
After scraping the cells, the reaction was stopped by using cell culture medium containing 10% Serum and transferred to a falcon tube. After counting cells using Vi-cell 300′000 cells were prepared per reaction by transferring 300′000 cells in single tubes and centrifuged at 1000 rpm for 5 min. The supernatant was aspirated using manually pipetting to avoid cell loss and the cells were resuspended in the Stem cell nucleofector solution II (Lonza, Cat #VPH-5022). Resuspend cells in nucleofector solution immediately before adding the Cas9 RNP:sgRNA mixture. To obtain the nucleofection mixture, 5 µg high concentrated (≥5 µg/µl) Cas9 protein of SEQ ID NO: 106 (volume = 0.78 µl) was mixed with 19.5 µg sgRNA of Table 6 (volume = 12.2 µl) and incubated for 20 min at room temperature. […] The Cas9 protein-guideRNA complex was added to the cell suspension and transferred to the electroporation cuvette immediately. Cells were transfected using the nucelofector device (Lonza, Amaxa Nucleofector II) and program A023. After nucleofection cells were transferred from cuvette to one well of a 24 well synthemax coated plate containing pre-warmed LSC medium including 3 µM LATS compound and 10 µM Rock inhibitor Y-27632 (Nature 1997, vol. 389, pp. 990-994). Incubate LSCs in a 5% CO2 incubator for around 3 days until cells are 90% confluent.
LSCs were treated with TryLE®Express Enzym (ThermoFisher, Cat #12605010) for 15 minutes in 5% CO2 at 37° C. After scraping the cells, the reaction was stopped by using cell culture medium containing 10% Serum and transferred to a falcon tube for a centrifugation step (1000 rpm, 5 minutes). After aspirating the medium cells were resuspended in 200 µl FACS buffer (PBS/10%FBS).
To analyze the expression of B2M and HLA-ABC, 5 µl APC mouse anti-human β2-microglobulin antibody (Biolegend, Cat#316312) and 20 µl PE mouse anti-human HLA-ABC antibody (BD Bioscience, Cat # 560168) were added to the cell suspension and incubated for 30 minutes on ice.
Cells were washed 3 times after antibody labelling with FACS buffer and resuspended in 200 µl in FACS buffer (depending on the cell number).
FACS data were analyzed using BD FACSDiva software and FlowJo software.

[1] = test system: genomic DNA purified from male human peripheral blood mononuclear cells; experiment: Biochemical assay for potential off-target genomic sites cleaved by Cas9 and B2M guides; settings: number of potential off-target sites, guide concentration 64 nM
Procedure: A biochemical method (See, e.g., Cameron et al., Nature Methods. 6, 600-606; 2017) was used to determine potential off-target genomic sites cleaved by Cas9 and selected B2M guides. Guides showing B2M indel activity were tested for potential off-target genomic cleavage sites with this assay. […] The number of potential off-target sites detected using a guide concentration of 64 nM in the biochemical assay are shown in Table 10. As a result of this analysis, several gRNAs were selected for analysis of potential off-target activity in limbal stem cells.

CD8+ T-cells = experiment: LSC/T-cell reaction assay; format: cell-based, human; settings: B2M/HLA-Class I negative LSCs co-cultured 10 days with CD8+ T-cells from 4 donors
Procedure: An LSC/T-cell assay was performed in flat bottom 96well synthemax coated plates in duplicates and incubated in 5% CO2 at 37° C. for 10 days. RPMI-1640 supplemented with HEPES (100 µM), non-essential aas (10x), sodium pyruvate (10 mM), 2-Mercapthoethanol (10x), 10% FBS and 1% Penicillin-Streptomycin (Gibco by Life Technologies) was used as medium for co-culture. Alternatively, RPMI-1640 supplemented with HEPES (10 mM), non-essential aas (1x), sodium pyruvate (1 mM), 2-Mercapthoethanol (1x), 10% FBS and 1% Penicillin-Streptomycin (Gibco by Life Technologies) was used as medium for co-culture.
One day before co-culture, LSCs (stimulator cells) were passed and cultured to a confluency of around 70% (30′000 - 50′000 cells) and cultured with LSC medium including compound. On day two, peripheral blood mononuclear cells (PBMC) were separated using EDTA blood with the Ficoll-Paque method (GE Healthcare Life Sciences, cat #17-1440-03). […]
After 10 days, CD8+ cells were transferred to a U-bottomed 96-well plate and washed 3 times using autoMAC rinsing solution (Miltenyi Biotec, Cat #130-091-222) including MACS BSA stock solution (Miltenyi Biotec, Cat #130-091-376). Cells were measured on a BD LSRFortessa X-20. FACS data were analyzed using BD FACSDiva software and FlowJo software.

B1: 1-CR004366: gRNA targeting human B2M; targeting domain SEQ ID NO: 108; sgRNA SEQ ID NO: 120; from Dharmacon (nucleic acid)
guide: GAGUAGCGCGAGCACAGCUAGUUUUAGAGCUAGAAAUAGCAAGUUAAAAUAAGGCUAGUCCGUUAUCAACUUGAAAAAGUGGCACCGAGUCGGUGCUUUU
modifications: listed as RNA, chemistry not given here
notes: gRNA targeting human B2M; from Dharmacon
B2M knockout efficiency in LSCs after nucleofection (B2M): 55%
off-target Site_ Count [1]: 69
T-cell immune response in co-culture with gene edited LSCs (CD8+ T-cells): almost completely eliminated
